Data reported in the supplement of paper PMC12764529.
± gives the half width of the 95% confidence interval.

Assay: folding stability dG unfold from trypsin proteolysis; higher = more stable
How it was run: (§1)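 Sequencing followed digestion of designed mini-proteins with trypsin and chymotrypsin, each at 11 concentrations in threefold dilutions together with a no-protease condition. The mini-proteins were under 80 residues, had no cysteine, sat in a PA-tagged cDNA display construct, and were kept only if AlphaFold2 dimer inter-PAE was above 15. From the counts, Bayesian fitting gave K50, and unfolding free energy was derived against a sequence-predicted unfolded-state K50 and a shared folded-state K50, per protease or combined.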

Sequence	folding stability dG unfold [kcal/mol]
SAGGSAGGSAGGPYEKAVEAAKALGSEDKPITIKLPNGTTVTLKPSELPSLPYEDPIVLLSAGGSAGGSAGG [r7_863_JUSTAS]	0.367 ± 0.093
SAGGSAGGSELPDGPALVVLPINSKPVVALAKVNSTGKIEVYIPNPGKKFTFDLDQAEVYPVLSAGGSAGGS [r12_782_TrMRF]	-0.1 ± 0.082
SAGGSAGGSPGKPYVEVEFTFIAFFPDGWLWVMTMKIEIPPDNNEIKPDIEMERIPLPPGQFLSAGGSAGGS [r12_811_TrROS]	2.43 ± 0.05
SPRTTVSFEVYMPPDQLKQNSIEDIADRVRDHFPGYKIKGIDIKFEPYPDPENGRPWVRVTVMIRVEPPESA [r9_1189_TrROS]	2.34 ± 0.085
SAGGSAGGSAGGSPNWKWVEMEITFNVPPGAKITIPNGIKLTVPPGDPVTIKIYIAVPPSAGGSAGGSAGGS [r4_232_TrROS]	1.94 ± 0.12
SAGGSAGGSAPKPKTKTIMFRFPGTPEDALDIAKEIANYFNDRGLEIEVERHPNGYIMITFPSAGGSAGGSA [r18_262_TrROS]	2.11 ± 0.059
SAGGSAGGSAGGGSFVLTRHTRTGLRRRVYFDPETGELTVELETGTESRTTLSPLSPDLSAGGSAGGSAGGS [r10_376_TrMRF]	-0.215 ± 0.2
SAPPDDWKPVTIPILIPFDSVEDAKEWVIELANELAKKHGWRINIDVDIEPVPNRYYIKIPITIYVPKKSAG [r14_626_TrROS]	2.39 ± 0.19
SAGGSAGGSAGMTIQIEILTTGDLEETKKKLEEELKKKYPSSLKVIIKLSHVPASEAPSDLGSAGGSAGGSA [r18_498_JUSTAS]	0.969 ± 0.025
SAGKYIMHPIKAGAEIKITIPPEGYRIKIGMYYPNGGKMEEHEVPIKPGKTLEFKIPDPNFFVMIEPEPSAG [r5_797_TrROS]	0.984 ± 0.1
SAGMTTLTLSAKAPPGEAVVTLTVTLPDGTTVPLATRTVAPDEVANITVSFPSGEPIDPARLTVEVTPPSAG [r5_287_JUSTAS]	0.0521 ± 0.14
SAGGSAGGSAGGMVYFPESLKEEVIEELKKKGYKIKSIEKIEGGYIRITTPKNPIEIKLLSAGGSAGGSAGG [r17_379_JUSTAS]	0.443 ± 0.084
MLVVEVPAEELSPEQVRERIRAALRAAREAGIRDARIVIVVEASEEQRERLRRELRELAEEEGLEVEIVERS [r1_387_TrROS_Hall]	4.83 ± 0.17
SITITRDPDYYTLRIPPGMDSVEEVQDFLKELGFKLPPGVKDIQVEEVDKENNQVTITIQLDDPEAIQDLSA [r9_820_TrROS]	0.601 ± 0.085
SAGGMPPGDPVKVNVQIRIRMRDPNGKKPELTVPIEYNVQSKEDARDAILKIAKELADEYGYEIEVFSAGGS [r8_149_TrROS]	0.711 ± 0.041
SAGGSAGGSAGKFKIKVFTHPDGYALALIEVPLGDKPVLILTLIKFPEDGNAEAETFIFPSAGGSAGGSAGG [r11_555_TrMRF]	2.06 ± 0.053
SAGGSGMKLEKEIEVEVDPSGVGAEAVKEAVRAELEKEGYKVKVEIEVSEEEEKLYVKLHVEIYELSAGGSA [r2_172_JUSTAS]	0.999 ± 0.064
SAGGSAGGSAGGKTIVVELEDGSKATITVDEDGNVTVEVYDEKTGEKKTFTIPAEALKPSAGGSAGGSAGGS [r10_838_TrROS_Hall]	2.53 ± 0.16
SAGGKSIHIADATLEDLVDLIANLPEPVVIHVERPVTFPVLLLENGVVAAVRTETAPATLTLTIPPELSAGG [r13_632_TrMRF]	0.408 ± 0.021
SAFKIERDPGNGQRKIKIEIPIIFPMGPEMRNMFKNMIKQWLAKHNPNVDIEIDIIPVKSPEQALEQIGSAG [r14_406_TrROS]	1.48 ± 0.15
SAGGSIEELAREKALEEHKKTGEKNYPFTFEFEIVSSYEFAPDGTPVASSEFPFKITLKFKLPPKKKSAGGS [r16_156_JUSTAS]	1.44 ± 0.024

Sequence	folding stability dG unfold [kcal/mol]
SAGGSAGGSAGGKKVKITVVLEFDGVLLVAEAEIEFDENGKIVEIKVKVELFPAPEEGEESAGGSAGGSAGG [r7_135_TrROS_Hall]	3.21 ± 0.36
SAGGSAEIPPGAKLEIDEMSFDPGNGRIEMMFKIEDPDGEPLWQIRVSWEFNPENGKMKLDIEIMPSAGGSA [r15_1028_TrROS]	2.51 ± 0.19
SAGGSAGGSAKPKLHIHILTAGPFEELAELLEELAKRIFPPELEIDIHIHYIPKELLHPELGSAGGSAGGSA [r18_498_TrMRF]	2.74 ± 0.15
SASMEAALAKVEEITAEPSWELVGVSPEGVFTIRNPETGTEIVIEIKVTSDGKGYKVTIPSKTVVPAPESAG [r14_20_JUSTAS]	1.45 ± 0.096
SAGGSAGGSAGGKKLTFKAEIVSEEEIEINGKKYRIFKVKVTLPDGSKLTLTVIVELDDLSAGGSAGGSAGG [r7_846_TrROS_Hall]	2.83 ± 0.036
SAGGMPYRLDAVRVEVRPRPDGGPLLVVELTYPDGSRETAVFDSPEDLLRALENSPRFSEITLLPSVSAGGS [r16_757_TrMRF]	1.01 ± 0.017
SAKGTLELTFPTTKVTVEVEKVDPVNNKVYARAVFPNGFVVDAVFDPKTGKVYVEVKEVKPTKDGGYSLSAG [r14_466_TrMRF]	1.24 ± 0.046
SAGGSARALLEELEVLSEEDRGDFTVVTVKGPAAEYPAEEVRAALEALGIAVEYDPATGEVTVYVASAGGSA [r15_599_JUSTAS]	-0.0454 ± 0.023
SAGGSAGGSKKKKKVKYKIKVINPEKPEVKEIEIEAENEEEAKKLAEELAKKYPGVKVEIEKTSAGGSAGGS [r12_601_TrROS_Hall]	1.08 ± 0.07
SAGGMHLVIPFDSPEEALEAAKELKKEFEEKGYTVKVYYFPETGDIHVLVEMKTDGKTKYLNVTVPFPSAGG [r13_641_TrMRF]	0.83 ± 0.034
SAGGSAGGSAGKVIIIKVPKKDMTPEEVEKLAKELKEKFPDAKITVIEVKKDGYIIIKIDSAGGSAGGSAGG [r11_365_TrROS_Hall]	1.91 ± 0.063
SAGGSAGGSPPGWTIMMFEITISITVPRVEVYDPKDGKPRAEVPYVRVSIPIPIFIIFPAGAFSAGGSAGGS [r12_600_TrROS]	2.93 ± 0.17
SAGGSAMPPNMKKVPISIHIPAENYKRDPDGKWKFTADELARHIQRGFRQRFGMPIKKIDVHVHPPSAGGSA [r15_415_TrROS]	-0.000463 ± 0.31
SAGGSAGGEATEGTLIVGGKPVRVTVERTPEGGRIATVELPNGVTVVARLNPVTRGAEILEVVESAGGSAGG [r6_290_TrMRF]	0.773 ± 0.05
SAGGASTVEYEITLPLDPSGSVDPDTIRAAAEAIAAADPDFVDHRIEEITITRLPDGTVRFTVTISVPSAGG [r13_462_JUSTAS]	2.66 ± 0.11
SAGGSAGGSAGGPEVEVFYERGPDGPLKVVVVVRNPDTPEVTVLVADLEPEKALEFLEALSAGGSAGGSAGG [r7_105_TrMRF]	2 ± 0.14
SAGGSAGGSAGMTLLVKNEDGYLVKIEITEVEVDENGELHLKVKVEVLPPLEEVEEVEEESAGGSAGGSAGG [r17_536_TrROS_Hall]	1.4 ± 0.076
SAGGSAGGIKELLEALGFEVVDVEPTDNKFMIMIRNPEEGRVVVIEIEWDGPPKIEIHPMPPNASAGGSAGG [r6_195_TrROS]	2.38 ± 0.065
SAGGMISKKLNPPSKEEAEKIAEEIKKKNPNYKVTMTYDPKTGTYTITITPLPKPPPDPKNFKEIIKSAGGS [r16_674_JUSTAS]	1.23 ± 0.12
SAAAENGEITISVEVELDPETNTLTIKRVEITVNGKLIATATLTITLPPPPPEPEETVYVHPDDPEALKSAG [r14_571_TrROS_Hall]	1.54 ± 0.023
SAGGSAGMIEVEIRPTPEGGYEVLVKFYGPGGVEVEEKKYRFGSEEEAKKFLEELAKKNGYSVKIRSAGGSA [r15_242_JUSTAS]	2.11 ± 0.056

Assay: folding stability dG unfold from chymotrypsin proteolysis; higher = more stable
How it was run: as §1

Sequence	folding stability dG unfold [kcal/mol]
SAGGSAGGSAGGPYEKAVEAAKALGSEDKPITIKLPNGTTVTLKPSELPSLPYEDPIVLLSAGGSAGGSAGG [r7_863_JUSTAS]	0.259 ± 0.18
SAGGSAGGSELPDGPALVVLPINSKPVVALAKVNSTGKIEVYIPNPGKKFTFDLDQAEVYPVLSAGGSAGGS [r12_782_TrMRF]	0.533 ± 0.1
SAGGSAGGSPGKPYVEVEFTFIAFFPDGWLWVMTMKIEIPPDNNEIKPDIEMERIPLPPGQFLSAGGSAGGS [r12_811_TrROS]	2.73 ± 0.066
SPRTTVSFEVYMPPDQLKQNSIEDIADRVRDHFPGYKIKGIDIKFEPYPDPENGRPWVRVTVMIRVEPPESA [r9_1189_TrROS]	3.28 ± 0.098
SAGGSAGGSAGGSPNWKWVEMEITFNVPPGAKITIPNGIKLTVPPGDPVTIKIYIAVPPSAGGSAGGSAGGS [r4_232_TrROS]	2.96 ± 0.048
SAGGSAGGSAPKPKTKTIMFRFPGTPEDALDIAKEIANYFNDRGLEIEVERHPNGYIMITFPSAGGSAGGSA [r18_262_TrROS]	2.82 ± 0.034
SAGGSAGGSAGGGSFVLTRHTRTGLRRRVYFDPETGELTVELETGTESRTTLSPLSPDLSAGGSAGGSAGGS [r10_376_TrMRF]	0.748 ± 0.064
SAPPDDWKPVTIPILIPFDSVEDAKEWVIELANELAKKHGWRINIDVDIEPVPNRYYIKIPITIYVPKKSAG [r14_626_TrROS]	2.42 ± 0.18
SAGGSAGGSAGMTIQIEILTTGDLEETKKKLEEELKKKYPSSLKVIIKLSHVPASEAPSDLGSAGGSAGGSA [r18_498_JUSTAS]	1.19 ± 0.033
SAGKYIMHPIKAGAEIKITIPPEGYRIKIGMYYPNGGKMEEHEVPIKPGKTLEFKIPDPNFFVMIEPEPSAG [r5_797_TrROS]	1.57 ± 0.25
SAGMTTLTLSAKAPPGEAVVTLTVTLPDGTTVPLATRTVAPDEVANITVSFPSGEPIDPARLTVEVTPPSAG [r5_287_JUSTAS]	0.137 ± 0.15
SAGGSAGGSAGGMVYFPESLKEEVIEELKKKGYKIKSIEKIEGGYIRITTPKNPIEIKLLSAGGSAGGSAGG [r17_379_JUSTAS]	0.786 ± 0.25
MLVVEVPAEELSPEQVRERIRAALRAAREAGIRDARIVIVVEASEEQRERLRRELRELAEEEGLEVEIVERS [r1_387_TrROS_Hall]	5.52 ± 0.2
SITITRDPDYYTLRIPPGMDSVEEVQDFLKELGFKLPPGVKDIQVEEVDKENNQVTITIQLDDPEAIQDLSA [r9_820_TrROS]	0.836 ± 0.28
SAGGMPPGDPVKVNVQIRIRMRDPNGKKPELTVPIEYNVQSKEDARDAILKIAKELADEYGYEIEVFSAGGS [r8_149_TrROS]	1.52 ± 0.12
SAGGSAGGSAGKFKIKVFTHPDGYALALIEVPLGDKPVLILTLIKFPEDGNAEAETFIFPSAGGSAGGSAGG [r11_555_TrMRF]	3.25 ± 0.077
SAGGSGMKLEKEIEVEVDPSGVGAEAVKEAVRAELEKEGYKVKVEIEVSEEEEKLYVKLHVEIYELSAGGSA [r2_172_JUSTAS]	2.01 ± 0.14
SAGGSAGGSAGGKTIVVELEDGSKATITVDEDGNVTVEVYDEKTGEKKTFTIPAEALKPSAGGSAGGSAGGS [r10_838_TrROS_Hall]	2.95 ± 0.066
SAGGKSIHIADATLEDLVDLIANLPEPVVIHVERPVTFPVLLLENGVVAAVRTETAPATLTLTIPPELSAGG [r13_632_TrMRF]	0.258 ± 0.087
SAFKIERDPGNGQRKIKIEIPIIFPMGPEMRNMFKNMIKQWLAKHNPNVDIEIDIIPVKSPEQALEQIGSAG [r14_406_TrROS]	2.61 ± 0.3
SAGGSIEELAREKALEEHKKTGEKNYPFTFEFEIVSSYEFAPDGTPVASSEFPFKITLKFKLPPKKKSAGGS [r16_156_JUSTAS]	2.88 ± 0.069
